The target of one assay is T1, 4H3297-bH.
T1 chain: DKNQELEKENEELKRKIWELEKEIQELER
The assay is described as follows: two-hybrid library CCNG1.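 Note: natural log of median RNA to DNA barcode read ratio; higher means stronger binding.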

In the next assay the target is T2, 4H370-bH.
T2 chain: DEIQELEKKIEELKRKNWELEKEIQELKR
In words: two-hybrid library CCNG1.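 Note: natural log of median RNA to DNA barcode read ratio; higher means stronger binding.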

The target in the next assay is T3, 4H730-bH.
T3 chain: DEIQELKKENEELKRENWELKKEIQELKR
In words: two-hybrid library CCNG1.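 Note: natural log of median RNA to DNA barcode read ratio; higher means stronger binding.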

A further assay concerns the target T4, 4H796-bH.
T4 chain: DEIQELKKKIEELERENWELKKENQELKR
The assay is described as follows: two-hybrid library CCNG1.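 Note: natural log of median RNA to DNA barcode read ratio; higher means stronger binding.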

The target in another assay is T5, 4H3364-bH.
T5 chain: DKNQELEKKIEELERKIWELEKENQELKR
The assay is described as follows: two-hybrid library CCNG1.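 Note: natural log of median RNA to DNA barcode read ratio; higher means stronger binding.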

A further assay addresses T6, 4H349-bH.
T6 chain: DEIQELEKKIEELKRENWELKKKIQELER
The assay is described as follows: two-hybrid library CCNG1.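 Note: natural log of median RNA to DNA barcode read ratio; higher means stronger binding.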

The target in the next assay is T7, 4H3381-bH.
T7 chain: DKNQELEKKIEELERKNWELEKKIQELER
The assay is described as follows: two-hybrid library CCNG1.

Another assay addresses T8, 4H56-bH.
T8 chain: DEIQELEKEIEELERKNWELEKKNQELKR
The assay is described as follows: two-hybrid library CCNG1.

For the next assay, the target named is T9, 4H932-bH.
T9 chain: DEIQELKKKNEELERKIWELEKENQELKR
The assay is described as follows: two-hybrid library CCNG1.

The target of a further assay is T10, 4H949-bH.
T10 chain: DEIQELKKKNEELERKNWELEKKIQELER
In words: two-hybrid library CCNG1.

In another assay the target is T11, 4H895-AA.
T11 chain: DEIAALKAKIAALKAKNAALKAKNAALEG
The assay is described as follows: two-hybrid library CCmax. The note with it: mean of both orientations.

A further assay concerns the target T12, 4H_APH.
T12 chain: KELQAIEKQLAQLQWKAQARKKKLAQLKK
In words: two-hybrid library CCmax. The settings on record: mean of both orientations.

A further assay concerns the target GCN2_T. The assay is described as follows: two-hybrid library CCmax.
For another assay, the target named is T13, 4H58-AA.
T13 chain: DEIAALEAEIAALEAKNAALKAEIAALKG
The assay is described as follows: two-hybrid library CCmax. The note with it: mean of both orientations.

The target in another assay is T14, 4H_BCR.
T14 chain: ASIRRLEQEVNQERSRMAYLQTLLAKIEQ
The assay is described as follows: two-hybrid library CCmax. The settings on record: mean of both orientations.

A further assay addresses T15, 4H3705-AA.
T15 chain: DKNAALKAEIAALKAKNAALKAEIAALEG
The assay is described as follows: two-hybrid library CCmax.

Another assay concerns the target 4H_GCN4. The assay is described as follows: two-hybrid library CCmax. The note with it: mean of both orientations.
The target of the next assay is T16, 4H3782-AA.
T16 chain: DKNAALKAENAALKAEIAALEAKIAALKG
In words: two-hybrid library CCmax. The note with it: mean of both orientations.

A further assay concerns the target T17, 4H486-AA.
T17 chain: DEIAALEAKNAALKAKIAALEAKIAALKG
In words: two-hybrid library CCmax. The note with it: mean of both orientations.

In a further assay the target is T18, 4H535-AA.
T18 chain: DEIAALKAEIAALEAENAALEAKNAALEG
The assay is described as follows: two-hybrid library CCmax. The settings on record: mean of both orientations.

The target of a further assay is T19, 4H465-AA.
T19 chain: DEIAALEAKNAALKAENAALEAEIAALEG
In words: two-hybrid library CCmax. The settings on record: mean of both orientations.

A further assay addresses T20, 4H967-bH.
T20 chain: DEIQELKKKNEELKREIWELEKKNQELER
The assay is described as follows: two-hybrid library CCNG1.

Another assay addresses T21, 4H462-bH.
T21 chain: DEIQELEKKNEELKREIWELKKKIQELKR
The assay is described as follows: two-hybrid library CCNG1.

In the next assay the target is T22, 4H568-bH.
T22 chain: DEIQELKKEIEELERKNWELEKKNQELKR
In words: two-hybrid library CCNG1.

The next assay concerns the target T23, 4H797-bH.
T23 chain: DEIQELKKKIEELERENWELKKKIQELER
The assay is described as follows: two-hybrid library CCNG1.

For another assay, the target named is T24, 4H3782-bH.
T24 chain: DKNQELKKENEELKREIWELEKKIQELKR
The assay is described as follows: two-hybrid library CCNG1.

The target of a further assay is T25, 4H4001-bH.
T25 chain: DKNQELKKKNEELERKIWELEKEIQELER
In words: two-hybrid library CCNG1.

For a further assay, the target named is T26, 4H883-bH.
T26 chain: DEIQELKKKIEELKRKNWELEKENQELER
In words: two-hybrid library CCNG1.

The target of a further assay is T27, 4H687-bA.
T27 chain: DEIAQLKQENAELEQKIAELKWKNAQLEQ
In words: two-hybrid library CCNG1.

The target of another assay is T28, 4H918-bH.
T28 chain: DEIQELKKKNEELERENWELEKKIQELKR
The assay is described as follows: two-hybrid library CCNG1.

Another assay deals with T29, 4H607-bH.
T29 chain: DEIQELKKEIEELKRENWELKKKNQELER
In words: two-hybrid library CCNG1.

A further assay concerns the target T30, 4H953-bH.
T30 chain: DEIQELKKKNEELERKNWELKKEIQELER
In words: two-hybrid library CCNG1.

Another assay addresses T31, 4H3843-bH.
T31 chain: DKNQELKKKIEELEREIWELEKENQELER
In words: two-hybrid library CCNG1.

A further assay addresses T32, 4H687-bH.
T32 chain: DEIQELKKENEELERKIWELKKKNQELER
In words: two-hybrid library CCNG1.

For the next assay, the target named is T33, 4H72-bH.
T33 chain: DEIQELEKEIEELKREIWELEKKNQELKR
In words: two-hybrid library CCNG1.

The next assay concerns the target T34, O9-bP.
T34 chain: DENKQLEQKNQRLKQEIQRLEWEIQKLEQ
The assay is described as follows: two-hybrid library CCNG1.

A further assay concerns the target T35, O7-bP.
T35 chain: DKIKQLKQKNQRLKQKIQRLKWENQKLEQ
The assay is described as follows: two-hybrid library CCNG1.

The target of the next assay is T36, O8-bP.
T36 chain: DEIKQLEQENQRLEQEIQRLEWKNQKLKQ
In words: two-hybrid library CCNG1.

4H_GCN4, sequence (chain, as listed by the source): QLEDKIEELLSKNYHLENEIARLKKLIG

DKNQELEKENEELKRKIWELEKEIQELER [4H3297-bH]: the interaction score with 4H3297-bH is 0.885; with 4H370-bH it was 0.804; with 4H730-bH it was -0.0968; with 4H796-bH, -0.673; with 4H3364-bH it was -0.362; with 4H349-bH, -0.0353. The interaction score in the assay with 4H3381-bH is -0.113; with 4H56-bH, -1.32; with 4H932-bH, -0.844; with 4H949-bH it was -1.66.

For DKNAALKAEIAALKAKNAALKAEIAALEG [4H3705-AA], the interaction score with 4H895-AA is -1.78; with 4H_APH, -2.68; in the assay with GCN2_T, -1.92; in the assay with 4H58-AA, 0.517; with 4H_BCR, -1.43; with 4H3705-AA, -1.2. The interaction score with 4H_GCN4 is -1.4; with 4H3782-AA, -1.26; in the assay with 4H486-AA, -1.65; with 4H535-AA it was -0.26; with 4H465-AA, -1.21.

With DEIQELEKKIEELKRKNWELEKEIQELKR [4H370-bH], the interaction score with 4H967-bH is 0.239; with 4H462-bH, 0.842; with 4H568-bH it was 0.618; in the assay with 4H797-bH, 0.396; with 4H3782-bH it was 0.858; in the assay with 4H4001-bH, 0.0634. The interaction score was -0.56 with 4H883-bH; 0.649 in the assay with 4H370-bH; 0.534 in the assay with 4H687-bA; -0.0355 with 4H918-bH; -0.999 with 4H607-bH; 0.739 with 4H953-bH. Besides, the interaction score with 4H3843-bH was 0.946; with 4H687-bH it was -1.39; with 4H72-bH it was -0.56.

In the case of DKIKQLKQKNQRLKQKIQRLKWENQKLEQ [O7-bP], the interaction score with O9-bP was -1.09; with O7-bP it was -1.43; in the assay with O8-bP it was 1.3.

These data come from article PMC10397247.
